Measured values published in paper PMC10397247.
Values belong to the binder of their own block, whether it stands above or below them.

Key:
4H3709-AA = molecular target: T1, 4H3709-AA; experiment: two-hybrid library CCmax; details: mean of both orientations;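 note: natural log of median RNA to DNA barcode read ratio; higher means stronger binding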
T1 chain: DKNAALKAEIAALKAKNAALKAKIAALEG

4H3102-AA = molecular target: T2, 4H3102-AA; experiment: two-hybrid library CCmax; details: mean of both orientations;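 note: natural log of median RNA to DNA barcode read ratio; higher means stronger binding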
T2 chain: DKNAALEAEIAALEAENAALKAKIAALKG

4H3066-AA = molecular target: T3, 4H3066-AA; experiment: two-hybrid library CCmax; details: mean of both orientations;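 note: natural log of median RNA to DNA barcode read ratio; higher means stronger binding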
T3 chain: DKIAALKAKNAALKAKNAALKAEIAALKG

4H391-AA = molecular target: T4, 4H391-AA; experiment: two-hybrid library CCmax; details: mean of both orientations;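 note: natural log of median RNA to DNA barcode read ratio; higher means stronger binding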
T4 chain: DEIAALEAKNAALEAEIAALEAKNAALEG

4H1854-AA = molecular target: T5, 4H1854-AA; experiment: two-hybrid library CCmax; details: mean of both orientations;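 note: natural log of median RNA to DNA barcode read ratio; higher means stronger binding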
T5 chain: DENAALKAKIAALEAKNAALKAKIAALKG

4H3628-AA = molecular target: T6, 4H3628-AA; experiment: two-hybrid library CCmax; details: mean of both orientations;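 note: natural log of median RNA to DNA barcode read ratio; higher means stronger binding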
T6 chain: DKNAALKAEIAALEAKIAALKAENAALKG

4H2713-AA = molecular target: T7, 4H2713-AA; experiment: two-hybrid library CCmax
T7 chain: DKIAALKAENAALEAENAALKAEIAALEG

4H3029-AA = molecular target: T8, 4H3029-AA; experiment: two-hybrid library CCmax; details: mean of both orientations
T8 chain: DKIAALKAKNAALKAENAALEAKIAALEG

4H1348-AA = molecular target: T9, 4H1348-AA; experiment: two-hybrid library CCmax; details: mean of both orientations
T9 chain: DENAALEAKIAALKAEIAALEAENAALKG

4H189-AA = molecular target: T10, 4H189-AA; experiment: two-hybrid library CCmax; details: mean of both orientations
T10 chain: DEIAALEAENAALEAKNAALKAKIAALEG

4H1064-AA = molecular target: T11, 4H1064-AA; experiment: two-hybrid library CCmax; details: mean of both orientations
T11 chain: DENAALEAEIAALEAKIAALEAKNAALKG

4H3417-AA = molecular target: T12, 4H3417-AA; experiment: two-hybrid library CCmax; details: mean of both orientations
T12 chain: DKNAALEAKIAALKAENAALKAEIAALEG

4H2283-AA = molecular target: T13, 4H2283-AA; experiment: two-hybrid library CCmax; details: mean of both orientations
T13 chain: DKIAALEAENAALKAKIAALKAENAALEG

4H675-AA = molecular target: T14, 4H675-AA; experiment: two-hybrid library CCmax; details: mean of both orientations
T14 chain: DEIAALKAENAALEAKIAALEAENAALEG

4H2991-AA = molecular target: T15, 4H2991-AA; experiment: two-hybrid library CCmax; details: mean of both orientations
T15 chain: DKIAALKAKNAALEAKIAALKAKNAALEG

4H1146-AA = molecular target: T16, 4H1146-AA; experiment: two-hybrid library CCmax; details: mean of both orientations
T16 chain: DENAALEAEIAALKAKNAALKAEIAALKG

4H3591-AA = molecular target: T17, 4H3591-AA; experiment: two-hybrid library CCmax; details: mean of both orientations
T17 chain: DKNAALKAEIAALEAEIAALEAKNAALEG

4H3920-AA = molecular target: T18, 4H3920-AA; experiment: two-hybrid library CCmax; details: mean of both orientations
T18 chain: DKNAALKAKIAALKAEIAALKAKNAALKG

4H656-AA = molecular target: T19, 4H656-AA; experiment: two-hybrid library CCmax; details: mean of both orientations
T19 chain: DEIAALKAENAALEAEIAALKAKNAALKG

4H971-AA = molecular target: T20, 4H971-AA; experiment: two-hybrid library CCmax; details: mean of both orientations
T20 chain: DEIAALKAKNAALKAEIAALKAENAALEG

4H3446-AA = molecular target: T21, 4H3446-AA; experiment: two-hybrid library CCmax; details: mean of both orientations
T21 chain: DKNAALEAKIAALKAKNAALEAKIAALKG

4H497-AA = molecular target: T22, 4H497-AA; experiment: two-hybrid library CCmax; details: mean of both orientations
T22 chain: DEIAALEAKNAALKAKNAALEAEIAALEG

4H478-AA = molecular target: T23, 4H478-AA; experiment: two-hybrid library CCmax; details: mean of both orientations
T23 chain: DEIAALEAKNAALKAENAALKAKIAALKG

4H428-AA = molecular target: T24, 4H428-AA; experiment: two-hybrid library CCmax; details: mean of both orientations
T24 chain: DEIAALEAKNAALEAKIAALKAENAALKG

4H3939-AA = molecular target: T25, 4H3939-AA; experiment: two-hybrid library CCmax; details: mean of both orientations
T25 chain: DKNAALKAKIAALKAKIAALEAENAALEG

4H2248-AA = molecular target: T26, 4H2248-AA; experiment: two-hybrid library CCmax; details: mean of both orientations
T26 chain: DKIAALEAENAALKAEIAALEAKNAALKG

4H1035-AA = molecular target: T27, 4H1035-AA; experiment: two-hybrid library CCmax
T27 chain: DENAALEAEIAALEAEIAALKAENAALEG

4H1809-AA = molecular target: T28, 4H1809-AA; experiment: two-hybrid library CCmax; details: mean of both orientations
T28 chain: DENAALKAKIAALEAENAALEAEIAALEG

4H3666-AA = molecular target: T29, 4H3666-AA; experiment: two-hybrid library CCmax; details: mean of both orientations
T29 chain: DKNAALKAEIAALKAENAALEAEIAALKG

4H2948-AA = molecular target: T30, 4H2948-AA; experiment: two-hybrid library CCmax; details: mean of both orientations
T30 chain: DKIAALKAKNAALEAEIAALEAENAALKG

4H146-AA = molecular target: T31, 4H146-AA; experiment: two-hybrid library CCmax
T31 chain: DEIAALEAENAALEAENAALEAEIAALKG

4H3121-AA = molecular target: T32, 4H3121-AA; experiment: two-hybrid library CCmax; details: mean of both orientations
T32 chain: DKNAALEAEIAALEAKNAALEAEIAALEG

4H2742-AA = molecular target: T33, 4H2742-AA; experiment: two-hybrid library CCmax; details: mean of both orientations
T33 chain: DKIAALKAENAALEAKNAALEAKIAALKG

4H1391-AA = molecular target: T34, 4H1391-AA; experiment: two-hybrid library CCmax; details: mean of both orientations
T34 chain: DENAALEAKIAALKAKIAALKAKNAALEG

4H1109-AA = molecular target: T35, 4H1109-AA; experiment: two-hybrid library CCmax; details: mean of both orientations
T35 chain: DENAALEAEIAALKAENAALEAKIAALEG

4H967-bN = molecular target: T36, 4H967-bN; experiment: two-hybrid library CCNG1
T36 chain: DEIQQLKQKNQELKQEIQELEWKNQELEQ

4H3782-bN = molecular target: T37, 4H3782-bN; experiment: two-hybrid library CCNG1
T37 chain: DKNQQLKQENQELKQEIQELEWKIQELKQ

4H1845-bN = molecular target: T38, 4H1845-bN; experiment: two-hybrid library CCNG1
T38 chain: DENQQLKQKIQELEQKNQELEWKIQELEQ

4H687-bN = molecular target: T39, 4H687-bN; experiment: two-hybrid library CCNG1
T39 chain: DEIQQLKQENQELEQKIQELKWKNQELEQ

4H2576-bN = molecular target: T40, 4H2576-bN; experiment: two-hybrid library CCNG1
T40 chain: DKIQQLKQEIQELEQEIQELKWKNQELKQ

4H3843-bN = molecular target: T41, 4H3843-bN; experiment: two-hybrid library CCNG1
T41 chain: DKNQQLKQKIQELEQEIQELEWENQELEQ

4H72-bN = molecular target: T42, 4H72-bN; experiment: two-hybrid library CCNG1
T42 chain: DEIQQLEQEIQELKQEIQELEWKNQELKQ

4H264-bH = molecular target: T43, 4H264-bH; experiment: two-hybrid library CCNG1
T43 chain: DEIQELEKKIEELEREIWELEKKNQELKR

4H883-bN = molecular target: T44, 4H883-bN; experiment: two-hybrid library CCNG1
T44 chain: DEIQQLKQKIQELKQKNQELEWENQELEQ

4H331-bN = molecular target: T45, 4H331-bN; experiment: two-hybrid library CCNG1
T45 chain: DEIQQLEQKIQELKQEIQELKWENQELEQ

4H607-bN = molecular target: T46, 4H607-bN; experiment: two-hybrid library CCNG1
T46 chain: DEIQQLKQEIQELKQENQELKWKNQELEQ

4H1369-bN = molecular target: T47, 4H1369-bN; experiment: two-hybrid library CCNG1
T47 chain: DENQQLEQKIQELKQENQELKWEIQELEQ

4H1446-bN = molecular target: T48, 4H1446-bN; experiment: two-hybrid library CCNG1
T48 chain: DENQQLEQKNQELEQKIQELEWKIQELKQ

4H2697-bN = molecular target: T49, 4H2697-bN; experiment: two-hybrid library CCNG1
T49 chain: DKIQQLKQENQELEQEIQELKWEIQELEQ

4H4001-bN = molecular target: T50, 4H4001-bN; experiment: two-hybrid library CCNG1
T50 chain: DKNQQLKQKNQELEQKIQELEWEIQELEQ

4H370-bN = molecular target: T51, 4H370-bN; experiment: two-hybrid library CCNG1
T51 chain: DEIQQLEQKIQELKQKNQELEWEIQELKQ

4H568-bN = molecular target: T52, 4H568-bN; experiment: two-hybrid library CCNG1
T52 chain: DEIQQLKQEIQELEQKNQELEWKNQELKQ

4H953-bN = molecular target: T53, 4H953-bN; experiment: two-hybrid library CCNG1
T53 chain: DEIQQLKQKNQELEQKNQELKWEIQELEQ

4H3606-bN = molecular target: T54, 4H3606-bN; experiment: two-hybrid library CCNG1
T54 chain: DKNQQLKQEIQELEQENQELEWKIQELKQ

4H1328-bN = molecular target: T55, 4H1328-bN; experiment: two-hybrid library CCNG1
T55 chain: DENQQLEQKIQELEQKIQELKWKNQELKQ

4H2667-bN = molecular target: T56, 4H2667-bN; experiment: two-hybrid library CCNG1
T56 chain: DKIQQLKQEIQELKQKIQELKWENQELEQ

4H2610-bN = molecular target: T57, 4H2610-bN; experiment: two-hybrid library CCNG1
T57 chain: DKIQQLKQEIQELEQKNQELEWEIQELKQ

4H3189-bN = molecular target: T58, 4H3189-bN; experiment: two-hybrid library CCNG1
T58 chain: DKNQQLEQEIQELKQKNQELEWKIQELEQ

4H918-bN = molecular target: T59, 4H918-bN; experiment: two-hybrid library CCNG1
T59 chain: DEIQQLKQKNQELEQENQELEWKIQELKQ

4H462-bN = molecular target: T60, 4H462-bN; experiment: two-hybrid library CCNG1
T60 chain: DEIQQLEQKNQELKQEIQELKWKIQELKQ

4H797-bN = molecular target: T61, 4H797-bN; experiment: two-hybrid library CCNG1
T61 chain: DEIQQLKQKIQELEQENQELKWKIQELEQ

interaction score (4H3709-AA): -0.573
interaction score (4H3102-AA): -1.34
interaction score (4H3066-AA): -0.363
interaction score (4H391-AA): -1.84
interaction score (4H1854-AA): -0.616
interaction score (4H3628-AA): 1.36
interaction score (4H2713-AA): -1.63
interaction score (4H3029-AA): -2.17
interaction score (4H1348-AA): 1.45
interaction score (4H189-AA): -1.24
interaction score (4H1064-AA): -0.486
interaction score (4H3417-AA): -1.73
interaction score (4H2283-AA): -1.67
interaction score (4H675-AA): -2.03
interaction score (4H2991-AA): -1.12
interaction score (4H1146-AA): -1.34
interaction score (4H3591-AA): -1.08
interaction score (4H3920-AA): 1.9
interaction score (4H656-AA): -1.67
interaction score (4H971-AA): -0.881
interaction score (4H3446-AA): -1.17
interaction score (4H497-AA): -1.73
interaction score (4H478-AA): -1.03
interaction score (4H428-AA): -1.35
interaction score (4H3939-AA): 0.466
interaction score (4H2248-AA): -1.39
interaction score (4H1035-AA): -0.719
interaction score (4H1809-AA): -1.83
interaction score (4H3666-AA): -1.55
interaction score (4H2948-AA): -1.56
interaction score (4H146-AA): -1.39
interaction score (4H3121-AA): -1.67
interaction score (4H2742-AA): -1.51
interaction score (4H1391-AA): 0.63
interaction score (4H1109-AA): -1.69
Binder: DENAALEAEIAALEAEIAALKAENAALEG [4H1035-AA]

interaction score (4H967-bN): 0.0544
interaction score (4H3782-bN): -1.38
interaction score (4H1845-bN): -1.61
interaction score (4H687-bN): 0.403
interaction score (4H2576-bN): 1.57
interaction score (4H3843-bN): 1.16
interaction score (4H72-bN): 0.764
interaction score (4H264-bH): 1.68
interaction score (4H883-bN): 0.625
interaction score (4H331-bN): 1.8
interaction score (4H607-bN): -0.376
interaction score (4H1369-bN): -0.223
interaction score (4H1446-bN): 0.527
interaction score (4H2697-bN): -0.465
interaction score (4H4001-bN): 1.19
interaction score (4H370-bN): -0.748
interaction score (4H568-bN): -0.31
interaction score (4H953-bN): -0.513
interaction score (4H3606-bN): -0.42
interaction score (4H1328-bN): 0.393
interaction score (4H2667-bN): 1.46
interaction score (4H2610-bN): 0.84
interaction score (4H3189-bN): -0.232
interaction score (4H918-bN): -0.287
interaction score (4H462-bN): -1.6
interaction score (4H797-bN): -0.686
Binder: DENQQLEQKIQELEQKIQELKWKNQELKQ [4H1328-bN]
